Results reported in patent US20220363770A1 (Amgen, published 2022).
Positions count from the first letter of the chain named.

T1: human PAC1 receptor extracellular domain (ECD) (human, UniProt P41586 24-153)
T1 construct: also called PAC1 receptor ECD; PAC1 ECD
T1 sequence: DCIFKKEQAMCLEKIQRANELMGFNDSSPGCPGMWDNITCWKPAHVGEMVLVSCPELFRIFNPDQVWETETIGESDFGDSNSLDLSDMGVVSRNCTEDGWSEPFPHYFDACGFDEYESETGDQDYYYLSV

B1: anti-CGRP receptor variant 06, yeast-displayed Fab (Fab, V domains shown)
VH: QVQLVESGGGVVQPGRSLRLSCAASGFTFSSFGMHWVRQAPGKGLEWVAVISFDGSIKYSVDSVKGRFTISRDNSKNTLFLQMNSLRAEDTAVYYCARDRLNYYESSGYYHYKYYGMAVWGQGTTVTVSS
VL: QSVLTQPPSVSAAPGQKVTISCSGSYSNIGRKSVSWYQQLPGTAPKLLIYDNNKRPSGIPDRFSGSKSGTSATLGITGLQTGDEADYYCGTWDSRLSAVVFGGGTKLTVLG
notes: also called Variant Ab ID 06
B2: anti-CGRP receptor variant 11, yeast-displayed Fab (Fab, V domains shown)
VH: QVQLVESGGGVVQPGRSLRLSCAASGFWFDTFGMHWVRQAPGKGLEWVAVISFAGEDTHYVDSVKGRFTISRDNSKNTLFLQMNSLRAEDTAVYYCARDRLNYYESYGYYGYHYYGMAVWGQGTTVTVSS
VL: B1 VL with Y26R, K32Y, D51E, N53M, K54F, S57R, S94Y, L96M, S97Q
notes: also called Variant Ab ID 11
B3: 4E4.2 parental Fab, yeast-displayed (Fab, V domains shown)
VH: B1 VH
VL: B1 VL with Y26S, R31N, K32N, S33Y
notes: also called parental 4E4.2 Fab
B4: anti-CGRP receptor variant 04, yeast-displayed Fab (Fab, V domains shown)
VH: B1 VH with E105R, S107F, H111G, K113H
VL: B1 VL with Y26S, R31N, K32N, S33Y
notes: also called Variant Ab ID 04
B5: anti-CGRP receptor variant 13, yeast-displayed Fab (Fab, V domains shown)
VH: B1 VH
VL: B1 VL with Y26R, K32R, S33T
notes: also called Variant Ab ID 13
B6: anti-CGRP receptor variant 05, yeast-displayed Fab (Fab, V domains shown)
VH: B1 VH
VL: QSVLTQPPSVSAAPGQKVTISCSGSFSNIGRSTVSWYQQLPGTAPKLLIYDNRWRAGGIPDRFSGSKSGTSATLGITGLQTGDEADYYCGTWDYQWKAVVFGGGTKLTVLG
notes: also called Variant Ab ID 05
B7: anti-CGRP receptor variant 15, yeast-displayed Fab (Fab, V domains shown)
VH: B1 VH
VL: B1 VL with Y26S, R31N, K32N, S33Y, S94W, R95W, L96R, S97K, V100I
notes: also called Variant Ab ID 15
B8: anti-CGRP receptor variant 14, yeast-displayed Fab (Fab, V domains shown)
VH: B1 VH
VL: B1 VL with Y26S, R31N, K32N, S33Y, R95W, L96H, S97R, A98V, V100T
notes: also called Variant Ab ID 14
B9: anti-CGRP receptor variant 10, yeast-displayed Fab (Fab, V domains shown)
VH: B1 VH with T28F, S30G, F32Y, D54A, S56E, K58E, Y59H, S60Y
VL: B1 VL with Y26S, R31N, K32N, S33Y
notes: also called Variant Ab ID 10
B10: anti-CGRP receptor variant 01, yeast-displayed Fab (Fab, V domains shown)
VH: B1 VH
VL: B1 VL with K32Y
notes: also called Variant Ab ID 01
B11: anti-CGRP receptor variant 09, yeast-displayed Fab (Fab, V domains shown)
VH: B1 VH with D54A, S56E, K58D, S60Y
VL: B1 VL with Y26S, R31N, K32N, S33Y
notes: also called Variant Ab ID 09
B12: anti-CGRP receptor variant 07, yeast-displayed Fab (Fab, V domains shown)
VH: B1 VH with T28Y, S30M, S31T, F32Y
VL: B1 VL with Y26S, R31N, K32N, S33Y
notes: also called Variant Ab ID 07
B13: anti-CGRP receptor variant 08, yeast-displayed Fab (Fab, V domains shown)
VH: B1 VH
VL: B1 VL with R31W, K32W, S33P
notes: also called Variant Ab ID 08
B14: anti-CGRP receptor variant 02, yeast-displayed Fab (Fab, V domains shown)
VH: B1 VH
VL: B1 VL with Y26R, R31I, S33A
notes: also called Variant Ab ID 02

Target: T2, cynomolgus monkey CGRP receptor (cynomolgus monkey, UniProt A0A2K5VQ71 34-472)
T2 construct: whole, on cells; Presented as detergent-solubilized lysate of HEK cells expressing the cynomolgus receptor; also called Cyno CGRP Receptor; Cynomolgus Monkey CGRP Receptor/HEK detergent-solubilized cell lysate
Experiment: yeast-displayed Fab, FACS, detergent-solubilized lysate of cynomolgus CGRP receptor/HEK cells vs blank cells

T2 sequence (A0A2K5VQ71 entry or part of it): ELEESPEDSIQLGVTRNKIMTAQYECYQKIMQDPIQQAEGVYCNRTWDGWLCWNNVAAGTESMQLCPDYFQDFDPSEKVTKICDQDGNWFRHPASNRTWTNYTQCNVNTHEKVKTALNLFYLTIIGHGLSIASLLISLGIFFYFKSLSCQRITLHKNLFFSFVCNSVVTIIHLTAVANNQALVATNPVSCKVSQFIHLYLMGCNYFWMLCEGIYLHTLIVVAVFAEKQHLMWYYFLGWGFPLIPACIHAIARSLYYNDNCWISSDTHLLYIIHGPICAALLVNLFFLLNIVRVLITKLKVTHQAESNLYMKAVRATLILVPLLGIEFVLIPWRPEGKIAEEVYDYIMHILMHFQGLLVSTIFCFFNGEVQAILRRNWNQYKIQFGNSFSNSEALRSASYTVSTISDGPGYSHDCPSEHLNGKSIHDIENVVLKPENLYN

Cyno CGRP Receptor/Blank Cells Specific Binding	Mutant vs. 4E4.2 Parent Specific Binding Ratio	Binder
4.8 ratio	2.5 fold	B1
5.3 ratio	2.8 fold	B2
1.9 ratio	1 fold	B3
3.1 ratio	1.6 fold	B4
4.8 ratio	2.5 fold	B5
5.2 ratio	2.7 fold	B6
4.2 ratio	2.2 fold	B7
2.2 ratio	1.1 fold	B8
3 ratio	1.6 fold	B9
4.6 ratio	2.4 fold	B10
2.3 ratio	1.2 fold	B11
3.1 ratio	1.6 fold	B12
4.9 ratio	2.5 fold	B13
5.3 ratio	2.8 fold	B14

Target: T1, human PAC1 receptor extracellular …
Experiment: yeast-displayed Fab, FACS, 10 nM PAC1 receptor ECD

Mutant vs. 4E4.2 Parent B/D Ratio	Normalized Binding Signal/Display Signal (B/D)	Binder
1 fold	0.1 ratio	B1
1.5 fold	0.16 ratio	B2
1.1 fold	0.12 ratio	B4
1 fold	0.11 ratio	B5
0.9 fold	0.1 ratio	B7
0.7 fold	0.08 ratio	B8
0.9 fold	0.1 ratio	B9
0.8 fold	0.09 ratio	B10
1.6 fold	0.17 ratio	B11
1.2 fold	0.13 ratio	B12
1 fold	0.1 ratio	B13
0.9 fold	0.1 ratio	B14

Target: T3, human CGRP receptor extracellular domain (ECD) (human, UniProt Q16602 23-138; O60894 27-117)
T3 construct: also called CGRP receptor ECD; human CGRP receptor ECD
Experiment: yeast-displayed Fab, FACS, 10 nM human CGRP receptor ECD

T3 sequence (Q16602 23-138 limits assumed, chain 1 of 2): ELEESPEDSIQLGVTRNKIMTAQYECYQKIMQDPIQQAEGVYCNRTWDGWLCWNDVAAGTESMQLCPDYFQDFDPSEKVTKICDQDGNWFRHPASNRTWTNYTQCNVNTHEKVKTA
T3 sequence (O60894 27-117 limits assumed, chain 2 of 2): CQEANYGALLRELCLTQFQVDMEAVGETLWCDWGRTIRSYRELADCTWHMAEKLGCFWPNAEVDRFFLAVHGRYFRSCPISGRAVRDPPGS

Mutant vs. 4E4.2 Parent B/D Ratio	Normalized Binding Signal/Display Signal (B/D)	Binder
7.4 fold	1.13 ratio	B1
22 fold	3.38 ratio	B2
3.4 fold	0.53 ratio	B4
9.8 fold	1.51 ratio	B5
24.6 fold	3.78 ratio	B6
2.7 fold	0.42 ratio	B7
2.2 fold	0.33 ratio	B8
13.3 fold	2.04 ratio	B9
5.8 fold	0.89 ratio	B10
10.6 fold	1.62 ratio	B11
5.3 fold	0.81 ratio	B12
3.1 fold	0.48 ratio	B13
3.8 fold	0.58 ratio	B14

Target: T4, human CGRP receptor (human CRLR / human RAMP1 heterodimer) (human, UniProt Q16602 23-461; O60894 27-148)
T4 construct: Full-length receptor: endogenous on SK-N-MC (HTB-10) cells in the cAMP assay; also called hCGRP receptor on SK-N-MC (HTB-10) cells; Human CGRP Receptor/AMID detergent-solubilized cell lysate
Experiment: yeast-displayed Fab, FACS, detergent-solubilized lysate of human CGRP receptor-expressing cells vs blank cells

T4 sequence (Q16602 23-461 limits assumed, chain 1 of 2): as the sequence (A0A2K5VQ71 entry or part of it) above, with N55D, V431L counted along it
T4 sequence (O60894 27-148 limits assumed, chain 2 of 2): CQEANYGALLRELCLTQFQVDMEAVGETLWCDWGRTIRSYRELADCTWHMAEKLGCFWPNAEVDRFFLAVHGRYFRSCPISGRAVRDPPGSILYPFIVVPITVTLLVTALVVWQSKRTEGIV

Human CGRP Receptor/Blank Cells Specific Binding	Mutant vs. 4E4.2 Parent Specific Binding Ratio	Binder
17.5 ratio	2.2 fold	B1
9.5 ratio	1.2 fold	B2
8 ratio	1 fold	B3
9.5 ratio	1.2 fold	B4
14.6 ratio	1.8 fold	B5
24.4 ratio	3.1 fold	B6
11.9 ratio	1.5 fold	B7
13.5 ratio	1.7 fold	B8
20.7 ratio	2.6 fold	B9
25.8 ratio	3.2 fold	B10
10.4 ratio	1.3 fold	B11
11.7 ratio	1.5 fold	B12
18 ratio	2.3 fold	B13
14.2 ratio	1.8 fold	B14

Target: T3, human CGRP receptor extracellular …
Experiment: yeast-displayed Fab, FACS, 1 nM human CGRP receptor ECD

Mutant vs. 4E4.2 Parent B/D Ratio	Normalized Binding Signal/Display Signal (B/D)	Binder
2.2 fold	0.27 ratio	B1
11 fold	1.36 ratio	B2
1.6 fold	0.2 ratio	B4
2.9 fold	0.35 ratio	B5
6.7 fold	0.82 ratio	B6
1.3 fold	0.16 ratio	B7
1 fold	0.12 ratio	B8
3.3 fold	0.4 ratio	B9
1.7 fold	0.21 ratio	B10
3 fold	0.38 ratio	B11
1.8 fold	0.22 ratio	B12
1.4 fold	0.17 ratio	B13
1.4 fold	0.17 ratio	B14
